Data published in US20240209070A1, “COTH3 BINDING AGENTS AND USES THEREOF” (priority 2021, published 2024).

Experiments:
R. delemar 99-880 = assay: Neutropenic mouse model of mucormycosis, R. delemar 99-880 infection; format: in vivo, Rhizopus delemar; settings: single dose of 30 μg 24 h after infection, lungs harvested day 4
Description: Mouse models: Neutropenic mice model used male ICR mice (20 to 23 g) obtained from Envigo (NJ). Mice were injected with cyclophosphamide (200 mg/kg, given intraperitoneally) and cortisone acetate (500 mg/kg, given subcutaneously) on days −2, +3, and +8 relative to infection^(1).
Antibody treatment with a single dose of 30 μg humanized antibody, or isotype human IgG started 24 or 48 hours after infection and was administered by intraperitoneal injection. Time to moribundity (equated with survival) served as the primary endpoint. As a secondary endpoint and in some experiments, fungal burden in the lungs and brains (primary and secondary target organs) was determined 96 hours after infection by quantitative PCR assay, as we previously described^(3). Values were expressed as log10 spore equivalent per gram of tissue. Histopathological examination was carried out on sections of the harvested organs after fixing in 10% zinc formalin. The fixed organs were embedded in paraffin, and […] sections were stained with hematoxylin and eosin.

Mucorales CotH2 = target: T1, Mucorales CotH2 (Rhizopus delemar, UniProt I1C4E4)
T1 sequence (I1C4E4 whole entry, looked up): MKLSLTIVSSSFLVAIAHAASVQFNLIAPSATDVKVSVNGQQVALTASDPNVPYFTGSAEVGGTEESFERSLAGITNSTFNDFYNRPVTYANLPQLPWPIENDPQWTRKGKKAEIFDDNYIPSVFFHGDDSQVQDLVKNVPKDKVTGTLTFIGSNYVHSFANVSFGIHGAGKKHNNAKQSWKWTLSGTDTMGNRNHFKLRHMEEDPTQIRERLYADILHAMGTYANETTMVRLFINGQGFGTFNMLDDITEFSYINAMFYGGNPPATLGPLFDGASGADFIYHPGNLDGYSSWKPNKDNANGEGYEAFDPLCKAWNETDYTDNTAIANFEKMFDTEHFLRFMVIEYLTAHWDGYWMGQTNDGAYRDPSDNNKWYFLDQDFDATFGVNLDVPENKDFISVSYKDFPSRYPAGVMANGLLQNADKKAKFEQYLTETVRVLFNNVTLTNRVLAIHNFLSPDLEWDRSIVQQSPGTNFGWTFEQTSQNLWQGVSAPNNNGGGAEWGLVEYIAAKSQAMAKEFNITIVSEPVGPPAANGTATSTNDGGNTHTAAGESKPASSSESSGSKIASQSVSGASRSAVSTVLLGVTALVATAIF

CotH3 antigen = CotH3 antigen (Rhizopus delemar, UniProt I1CFE1); settings: Protein G sensor, CotH3 6.25-400 nM, 25° C.
Description: The purified preparations were then used to assess the affinity of each clone for the CotH3 antigen by biolayer interferometry using Gator system (ProbeLife). Under the assumption that the CotH3 antigen provided by Vitalex behaves as a normal soluble monomeric protein, a Protein G coated sensor probe (ProbeLife, catalog #160006) was loaded with the bivalent antibody test clone at a concentration of 5 μg/ml in ProbeLife's kinetic buffer (PBS pH 7.4, 0.02% BSA, 0.002% Tween-20, 0.005% NaN3). A serial dilution of CotH3 antigen of 400, 200, 100, 50, 25, 12.5, 6.25 nM and buffer only (0 nM) was added to the sensors. All reactions were performed at 25° C. The values are chosen when three or more concentrations yield the same kinetic values. The original murine mAb was provided by Vitalex as the reference.

[1] = intravenous, single dose 10 μg, 30 μg or 100 μg, 1-168 hours
Description: Pharmacokinetics study: Neutropenic mice were infected intratracheally with 25 μl of PBS containing 2.5×10^5 spores of Rhizopus delemear. […] After infection, mice were treated daily with 5 mg in 0.2 ml of irrigation water with ceftazidime subcutaneously to prevent bacterial superinfection. […] Mouse serum samples were collected at the time points: 1 hour, 2 hours, 4 hours, 8 hours, 24 hours, 72 hours, 120 hours, and 168 hours after the antibody injection. The antibody concentration in the mouse serum samples was detected by ELISA, with Flag-CotH3 as the coating protein, and anti-human-IgG-HRP as the secondary antibody.

Mucorales CotH3 = Mucorales CotH3 (Rhizopus delemar, UniProt I1CFE1)
Sequence of Mucorales CotH3 (I1CFE1 18-601): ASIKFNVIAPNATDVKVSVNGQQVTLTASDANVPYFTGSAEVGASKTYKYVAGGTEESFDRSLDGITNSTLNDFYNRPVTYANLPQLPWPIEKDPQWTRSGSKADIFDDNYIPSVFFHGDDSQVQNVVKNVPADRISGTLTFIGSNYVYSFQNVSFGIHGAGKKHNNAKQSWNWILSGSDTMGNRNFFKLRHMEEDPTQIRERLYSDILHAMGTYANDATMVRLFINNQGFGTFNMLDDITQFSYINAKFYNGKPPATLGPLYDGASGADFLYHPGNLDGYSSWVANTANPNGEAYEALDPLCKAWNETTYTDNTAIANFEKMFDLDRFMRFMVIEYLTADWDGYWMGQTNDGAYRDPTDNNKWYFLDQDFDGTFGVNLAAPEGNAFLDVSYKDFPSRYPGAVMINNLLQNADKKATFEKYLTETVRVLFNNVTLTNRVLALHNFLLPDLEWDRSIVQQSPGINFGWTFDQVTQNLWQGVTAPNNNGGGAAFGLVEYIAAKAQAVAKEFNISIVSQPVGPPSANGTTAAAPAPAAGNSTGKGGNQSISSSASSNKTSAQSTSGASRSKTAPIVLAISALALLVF

Sequence of CotH3 antigen (I1CFE1 18-601): as above

B1: mAb: mouse monoclonal IgG1 kappa anti-CotH3 antibody, clone C2, raised against peptide SEQ ID NO:34 (antibody, V domains shown)
VH: DLQLQESGPSLVKPSQTLSLTCSVTGDSITSGYWNWIRKFPGNKLEHMGYIKYSGRTFYNPSLKSRVSITRDTSKNQYYLQLNSVTSEDTATYYCASRGYWGQGTTLTVSS
VL: DVVMTQTPLSLSVTIGQPASISCKSSQSLLYSNGKTYLNWLQQRPGQAPKLLMFQVSKPGIPDRFSGSGSETDFTLKISRVEAEDLGVYYCLQGTYFPHTFGAGTKVEIK
**Q.** For B1, which lung histology (R. delemar 99-880) is on record?
**A.** The lung histology was “no fungal elements and normal lung architecture”.

**Q.** What about the “specific binding to CotH2” value (Mucorales CotH2) of the same molecule?
**A.** Its value is “bound specifically”.

**Q.** What about the “Koff (S^−1)” value (CotH3 antigen) of the same molecule?
**A.** Its value is 1.41E−3 S^−1.

**Q.** And the “Kon” value (CotH3 antigen)?
**A.** The value was 23900 M⁻¹ s⁻¹.

**Q.** What about the Rmax (CotH3 antigen) of the same molecule?
**A.** Its Rmax is 0.69.

**Q.** What about the “pharmacokinetics (serum antibody concentration)” value [1] of the same molecule?
**A.** Its value is “Dose dependent pharmacokinetics”.

**Q.** And the “specific binding to CotH3” value (Mucorales CotH3)?
**A.** The value was “bound specifically”.
